Assay results taken from the RNAGym collection of RNA variant scans (doi:10.1021/acssynbio.7b00057).

B1: Pistol ribozyme (parent)
chain: GGGUCGUUGUUCCAUAAUCGCGUGGAUAUGGCACGCAAGUUUCUACCGGGCACCGUAAAUGUCCGACUGGAGCCGUUCGGGCGGCUAUAAACAGACCUCAGGCCCGAAGCGUGGCGGCACCUGCCGCCGGUGGUAAAAAAGAUCGGAAGAGCACACGUCU

Variants of: B1
Assay: aptazyme ON/OFF ratio, guanine; higher = stronger switching; co-transcriptional cleavage with and without guanine
In the case of GGGUCGAAAAACGAUAAUCGCGUGGAUAUGGCACGCAAGUUUCUACCGGGCACCGUAAAUGUCCGACUGGAGCCGUUCGGGCGGCUAUAAACAGACCUCAGGCCCGAAGCGUGGCGGCACCUGCCGCCGGUGGUAAAAAAGAUCGGAAGAGCACACGUCU [U7A U8A G9A U10A U11A C13G], the “aptazyme ON/OFF ratio” value is reported as 1.17.
For GGGUCGAAAAACUAUAAUCGCGUGGAUAUGGCACGCAAGUUUCUACCGGGCACCGUAAAUGUCCGACUGGAGCCGUUCGGGCGGCUAUAAACAGACCUCAGGCCCGAAGCGUGGCGGCACCUGCCGCCGGUGGUAAAAAAGAUCGGAAGAGCACACGUCU [U7A U8A G9A U10A U11A C13U], the “aptazyme ON/OFF ratio” value was 1.3.
In the case of GGGUCGAAAAACAAUAAUCGCGUGGAUAUGGCACGCAAGUUUCUACCGGGCACCGUAAAUGUCCGACUGGAGCCGUUCGGGCGGCUAUAAACAGACCUCAGGCCCGAAGCGUGGCGGCACCUGCCGCCGGUGGUAAAAAAGAUCGGAAGAGCACACGUCU [U7A U8A G9A U10A U11A C13A], the “aptazyme ON/OFF ratio” value is reported as 1.16.
For GGGUCGAAAAACCAUAAUCGCGUGGAUAUGGCACGCAAGUUUCUACCGGGCACCGUAAAUGUCCGACUGGAGCCGUUCGGGCGGCUAUAAACAGACCUCAGGCCCGAAGCGUGGCGGCACCUGCCGCCGGUGGUAAAAAAGAUCGGAAGAGCACACGUCU [U7A U8A G9A U10A U11A], the “aptazyme ON/OFF ratio” value was 1.15.
With GGGUCGAAAACCCAUAAUCGCGUGGAUAUGGCACGCAAGUUUCUACCGGGCACCGUAAAUGUCCGACUGGAGCCGUUCGGGCGGCUAUAAACAGACCUCAGGCCCGAAGCGUGGCGGCACCUGCCGCCGGUGGUAAAAAAGAUCGGAAGAGCACACGUCU [U7A U8A G9A U10A U11C] the “aptazyme ON/OFF ratio” value was 1.04.
For GGGUCGAAAAGCCAUAAUCGCGUGGAUAUGGCACGCAAGUUUCUACCGGGCACCGUAAAUGUCCGACUGGAGCCGUUCGGGCGGCUAUAAACAGACCUCAGGCCCGAAGCGUGGCGGCACCUGCCGCCGGUGGUAAAAAAGAUCGGAAGAGCACACGUCU [U7A U8A G9A U10A U11G], the “aptazyme ON/OFF ratio” value was 1.29.
For GGGUCGAAAAAAUAUAAUCGCGUGGAUAUGGCACGCAAGUUUCUACCGGGCACCGUAAAUGUCCGACUGGAGCCGUUCGGGCGGCUAUAAACAGACCUCAGGCCCGAAGCGUGGCGGCACCUGCCGCCGGUGGUAAAAAAGAUCGGAAGAGCACACGUCU [U7A U8A G9A U10A U11A C12A C13U], the “aptazyme ON/OFF ratio” value was 1.34.
For GGGUCGAAAAAAGAUAAUCGCGUGGAUAUGGCACGCAAGUUUCUACCGGGCACCGUAAAUGUCCGACUGGAGCCGUUCGGGCGGCUAUAAACAGACCUCAGGCCCGAAGCGUGGCGGCACCUGCCGCCGGUGGUAAAAAAGAUCGGAAGAGCACACGUCU [U7A U8A G9A U10A U11A C12A C13G], the “aptazyme ON/OFF ratio” value was 1.21.
With GGGUCGAAAAAAAAUAAUCGCGUGGAUAUGGCACGCAAGUUUCUACCGGGCACCGUAAAUGUCCGACUGGAGCCGUUCGGGCGGCUAUAAACAGACCUCAGGCCCGAAGCGUGGCGGCACCUGCCGCCGGUGGUAAAAAAGAUCGGAAGAGCACACGUCU [U7A U8A G9A U10A U11A C12A C13A] the “aptazyme ON/OFF ratio” value was 1.35.
For GGGUCGAAAAAUGAUAAUCGCGUGGAUAUGGCACGCAAGUUUCUACCGGGCACCGUAAAUGUCCGACUGGAGCCGUUCGGGCGGCUAUAAACAGACCUCAGGCCCGAAGCGUGGCGGCACCUGCCGCCGGUGGUAAAAAAGAUCGGAAGAGCACACGUCU [U7A U8A G9A U10A U11A C12U C13G], the “aptazyme ON/OFF ratio” value was 1.23.
With GGGUCGAAAAAUUAUAAUCGCGUGGAUAUGGCACGCAAGUUUCUACCGGGCACCGUAAAUGUCCGACUGGAGCCGUUCGGGCGGCUAUAAACAGACCUCAGGCCCGAAGCGUGGCGGCACCUGCCGCCGGUGGUAAAAAAGAUCGGAAGAGCACACGUCU [U7A U8A G9A U10A U11A C12U C13U] the “aptazyme ON/OFF ratio” value was 1.14.
In the case of GGGUCGAAAAAUAAUAAUCGCGUGGAUAUGGCACGCAAGUUUCUACCGGGCACCGUAAAUGUCCGACUGGAGCCGUUCGGGCGGCUAUAAACAGACCUCAGGCCCGAAGCGUGGCGGCACCUGCCGCCGGUGGUAAAAAAGAUCGGAAGAGCACACGUCU [U7A U8A G9A U10A U11A C12U C13A], the “aptazyme ON/OFF ratio” value is reported as 1.17.
In the case of GGGUCGAAAAUCUAUAAUCGCGUGGAUAUGGCACGCAAGUUUCUACCGGGCACCGUAAAUGUCCGACUGGAGCCGUUCGGGCGGCUAUAAACAGACCUCAGGCCCGAAGCGUGGCGGCACCUGCCGCCGGUGGUAAAAAAGAUCGGAAGAGCACACGUCU [U7A U8A G9A U10A C13U], the “aptazyme ON/OFF ratio” value is reported as 1.17.
In the case of GGGUCGAAAAUCGAUAAUCGCGUGGAUAUGGCACGCAAGUUUCUACCGGGCACCGUAAAUGUCCGACUGGAGCCGUUCGGGCGGCUAUAAACAGACCUCAGGCCCGAAGCGUGGCGGCACCUGCCGCCGGUGGUAAAAAAGAUCGGAAGAGCACACGUCU [U7A U8A G9A U10A C13G], the “aptazyme ON/OFF ratio” value is reported as 1.05.
In the case of GGGUCGAAAACGCAUAAUCGCGUGGAUAUGGCACGCAAGUUUCUACCGGGCACCGUAAAUGUCCGACUGGAGCCGUUCGGGCGGCUAUAAACAGACCUCAGGCCCGAAGCGUGGCGGCACCUGCCGCCGGUGGUAAAAAAGAUCGGAAGAGCACACGUCU [U7A U8A G9A U10A U11C C12G], the “aptazyme ON/OFF ratio” value is reported as 1.17.
In the case of GGGUCGAAAACUCAUAAUCGCGUGGAUAUGGCACGCAAGUUUCUACCGGGCACCGUAAAUGUCCGACUGGAGCCGUUCGGGCGGCUAUAAACAGACCUCAGGCCCGAAGCGUGGCGGCACCUGCCGCCGGUGGUAAAAAAGAUCGGAAGAGCACACGUCU [U7A U8A G9A U10A U11C C12U], the “aptazyme ON/OFF ratio” value is reported as 1.02.
For GGGUCGAAAACACAUAAUCGCGUGGAUAUGGCACGCAAGUUUCUACCGGGCACCGUAAAUGUCCGACUGGAGCCGUUCGGGCGGCUAUAAACAGACCUCAGGCCCGAAGCGUGGCGGCACCUGCCGCCGGUGGUAAAAAAGAUCGGAAGAGCACACGUCU [U7A U8A G9A U10A U11C C12A], the “aptazyme ON/OFF ratio” value was 1.24.
For GGGUCGAAAACUGAUAAUCGCGUGGAUAUGGCACGCAAGUUUCUACCGGGCACCGUAAAUGUCCGACUGGAGCCGUUCGGGCGGCUAUAAACAGACCUCAGGCCCGAAGCGUGGCGGCACCUGCCGCCGGUGGUAAAAAAGAUCGGAAGAGCACACGUCU [U7A U8A G9A U10A U11C C12U C13G], the “aptazyme ON/OFF ratio” value was 1.08.
